Drawing on patent US20250051428A1 (UNIVERSITY OF BRITISH COLUMBIA, published 2025), this text covers Kd for two molecules.

For assay [1], the target named is T1, commercially-prepared stable A-beta42 Oligomers (SynAging SAS) (human).
T1 construct: Bought oligomer preparation; also called AbO; SynAging AbO
The experiment in a line: ProteOn biosensor, antibody captured with anti-mouse IgG or amine-coupled on GLM chip, AbO 12.3 nM to 1 µM; hybridoma-purified antibody. The method, then:
(§1) AbO 3 fold-dilutions were used: 1 μM, 0.33 μM, 0.11 μM, 37 nM, 12.3 nM. Assay buffer was PBS-E+Tween 20+2 mg/ml BSA.

Assay [2] concerns the target T1, commercially-prepared stable A-beta42 …. The experiment in a line: ProteOn biosensor, antibody captured with anti-mouse IgG or amine-coupled on GLM chip, AbO 12.3 nM to 1 µM; lower end of the printed range 16.2-19.5 nM; test or coupling not stated. On the procedure: as §1
Assay [3] shares this target. As to the kind of experiment: ProteOn biosensor, antibody captured with anti-mouse IgG or amine-coupled on GLM chip, AbO 12.3 nM to 1 µM; upper end of the printed range 16.2-19.5 nM; test or coupling not stated. The method, then:
as §1

In assay [4] the target is T2, cyclo(CGHHQKG) conjugated to BSA (also: conjugated to BSA, site not given here).
T2 construct: also called Cyclic Peptide; cyclopeptide
T2 peptide: cyclo(CGHHQKG)
The experiment in a line: ProteOn biosensor, antibody amine-coupled to GLH chip, cyclo-BSA 111 pM to 9 nM. The method, then:
Cyclo-BSA 3-fold dilutions were used from 9 nM to 111 pM. Assay buffer was PBS-E+0.05% Tween+10 mg/ml BSA.

T1 sequence (peptide, as listed by the source): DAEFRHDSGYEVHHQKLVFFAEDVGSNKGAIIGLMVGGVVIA

B1: 301-17 (hybridoma-purified IgG3) (antibody, V domains shown)
VH: QVQLQQPGAELVKPGASVKMSCKASGYSFTSYWINWVKQRPGQGLEWIGDVHPGRGVSTYNAKFKSKATLTLDTSSSTAYMQLSSLTSEDSAVYYCSRSHGNTYWFFDVWGAGTTVTVSS
VL: DVLMTQTPLSLPVSLGDQASISCRSSQSIVHSNGNTYLEWYLQKPGQSPKLLIYKVSNRFSGVPDRFSGSGSGTDFTLKISRVEAEDLGVYYCFQGSHVPFTFGSGTKLEIK
notes: Mouse hybridoma monoclonal, IgG3
For B1, the dissociation constant Kd in assay [1] is approximately 26.9 nM.

B2: Recombinant 301-17 IgG2a (antibody)
heavy: QVQLQQPGAELVKPGASVKMSCKASGYSFTSYWINWVKQRPGQGLEWIGDVHPGRGVSTYNAKFKSKATLTLDTSSSTAYMQLSSLTSEDSAVYYCSRSHGNTYWFFDVWGAGTTVTVSSAKTTAPSVYPLAPVCGDTTGSSVTLGCLVKGYFPEPVTLTWNSGSLSSGVHTFPAVLQSDLYTLSSSVTVTSSTWPSQSITCNVAHPASSTKVDKKIEPRGPTIKPCPPCKCPAPNLLGGPSVFIFPPKIKDVLMISLSPIVTCVVVDVSEDDPDVQISWFVNNVEVHTAQTQTHREDYNSTLRVVSALPIQHQDWMSGKEFKCKVNNKDLPAPIERTISKPKGSVRAPQVYVLPPPEEEMTKKQVTLTCMVTDFMPEDIYVEWTNNGKTELNYKNTEPVLDSDGSYFMYSKLRVEKKNWVERNSYSCSVVHEGLHNHHTTKSFSRTPGK
light: DVLMTQTPLSLPVSLGDQASISCRSSQSIVHSNGNTYLEWYLQKPGQSPKLLIYKVSNRFSGVPDRFSGSGSGTDFTLKISRVEAEDLGVYYCFQGSHVPFTFGSGTKLEIKRADAAPTVSIFPPSSEQLTSGGASVVCFLNNFYPKDINVKWKIDGSERQNGVLNSWTDQDSKDSTYSMSSTLTLTKDEYERHNSYTCEATHKTSTSPIVKSFNRNEC
For B2, the Kd in assay [2] is 16.2 to 19.5 nM; in assay [3], 16.2 to 19.5 nM; in assay [4], approximately 0.017 nM.

Usually Kd stands for the equilibrium constant for the complex coming apart. High values mean lower affinity, low ones higher affinity.
